Laboratory results as given in patent US8298536B2, “Methods of treating inflammatory pain” (Pfizer Limited, priority 2008, dated 2012).
Values belong to the molecule of their own block, whether it stands above or below them.

How the values were obtained:
[1] = test system: neurogenic skin flare rat model; experiment: Neurogenic skin flare model (saphenous nerve stimulation, laser Doppler blood flow); assay type: in vivo; details: for start of significant decrease in blood flow response / development of neurogenic flare in vivo: rat
Procedure: FIG. 7: Data showing G1 inhibits neurogenic flare in the skin starting from 90 min post-treatment. G1 was administered by intravenous administration (1 ml/kg). Data are from 6-8 or 13 rats per group. *p=0.05, **p=0.01 vs vehicle (phosphate buffered saline) treated group at each time point (AVOVA).
Using a neurogenic skin flare rat model the efficacy of G1 was tested for its ability to block CGRP effect in vivo. The saphenous nerve in the rat is electrically stimulated causing CGRP release from nerve endings and leading to vasodilation, the resulting changes in blood flow can be measured using laser Dopler methods.
Changes in blood flow parameters were expressed as the area under the curve (AUC, change in arbitrary Doppler flux units multiplied by time). CGRP receptor antagonist CGRP8-37 (400 nmol/kg, i.v.) was used as a positive control to validate the specificity of the model (data not shown). To determine the effect of G1 prior to dosing for each animal, the baseline blood flow response to stimulation was established with two saphenous nerve stimulations each 30 minutes apart. Rats were treated with G1 after the blood flow response of the second stimulation had returned to baseline levels (approximately 10 minutes post stimulation) and an additional four stimulations at 30 minute intervals were performed.

rat = experiment: Gastro-intestinal adverse effects in-vivo study
[2] = test system: 25-37 human α-CGRP fragment; experiment: Epitope identification, alanine scan of C-terminal CGRP fragment (Biacore 3000); assay type: binding; details: Fab fragments, positions 27-37 mutated to alanine, 25° C.
Procedure: (§1) FIG. 4: Alanine scan using a C-terminal CGRP fragment (CGRP 25-37).
(§2) Interaction analysis was conducted at 25° C. on a Biacore 3000™ system equipped with streptavidin-coated (SA) sensor chips (Biacore AB, Uppsala, Sweden) using a standard Biacore running buffer (HBS-P). […] Each amino acid between position 27-37 was then mutated individually to alanine and expressed the fold loss in affinity compared to the wild-type fragment. […] Purified Fab fragments of antibody G1 were generated. Fab fragments were titrated over the chip using 1 μM as the top concentration of a two-fold dilution series. Association and dissociation phases were monitored at 100 μl/min for 1 minute and 5 minutes respectively. Surfaces were regenerated with a mixture of 35% ethanol+25 mM NaOH+0.5M NaCl.

[3] = molecular target: 25-37 human α-CGRP fragment (Homo sapiens, UniProt P06881); experiment: as above; assay type: binding; details: 25° C.
Procedure: as §1, §2

human α-CGRP [4] = molecular target: T1, human α-CGRP (Homo sapiens, UniProt P06881); experiment: Binding assay: blocking human α-CGRP from binding to the CGRP1-receptor in SK-N-MC cells; design: CGRP (calcitonin gene-related peptide) is a 37 amino acid neuropeptide; host or cells: SK-N-MC cells (endogenous receptor); details: FIG. 2
T1 sequence (P06881 83-119 limits assumed): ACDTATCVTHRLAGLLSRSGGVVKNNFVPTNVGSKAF

rat β-CGRP = molecular target: T2, rat β-CGRP (Rattus norvegicus, UniProt P10093, R105S); experiment: Biacore binding affinity, N-biotin β-rat CGRP on chip; details: 37 ° C.
T2 construct: CGRP (calcitonin gene-related peptide) is a 37 amino acid neuropeptide
T2 sequence (P10093 89-125 R105S limits assumed): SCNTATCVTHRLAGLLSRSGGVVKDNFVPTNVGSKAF
From the text: (§3) G1 was titrated over the chip surface Binding affinities were deduced from the quotient of the kinetic rate constants (KD=koff/kon) see Table 1.

calcitonin = molecular target: T3, calcitonin (Homo sapiens, UniProt P01258); experiment: Solution competition by Biacore: calcitonin; assay type: binding; details: pre-incubation with an excess of peptide
T3 sequence (P01258 85-116 limits assumed): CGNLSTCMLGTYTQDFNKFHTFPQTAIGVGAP
From the text: (§4) FIG. 5: Solution competition by Biacore: CGRP, CGRP fragments or peptides related in sequence to CGRP were used to determine the specificity of G1.
(§5) We determined the specificity of antibody G1 to human or rat CGRP by using the Biacore chip to “probe” the free concentration of a premixed complex of mAb+peptide.

human or rat CGRP = experiment: Solution competition by Biacore: human or rat CGRP; assay type: binding; details: premixed mAb+peptide
From the text: as §4, §5

rat α-CGRP = molecular target: T4, rat α-CGRP (Rattus norvegicus, UniProt P01256); experiment: Biacore binding affinity, N-biotinylated rat α-CGRP on chip
T4 construct: CGRP (calcitonin gene-related peptide) is a 37 amino acid neuropeptide
T4 sequence (P01256 83-119 limits assumed): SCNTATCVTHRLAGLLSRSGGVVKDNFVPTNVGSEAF
From the text: as §3

human α-CGRP [5] = molecular target: T1, human α-CGRP; experiment: Biacore binding affinity, N-biotinylated human α-CGRP on chip; design: as full-length N-biotinylated human α-CGRP
From the text: as §3

human β-CGRP = molecular target: T5, human β-CGRP (Homo sapiens, UniProt P10092); experiment: Biacore binding affinity, N-biotin β-human CGRP on chip; details: 37 ° C.
T5 construct: CGRP (calcitonin gene-related peptide) is a 37 amino acid neuropeptide
T5 sequence (P10092 82-118 limits assumed): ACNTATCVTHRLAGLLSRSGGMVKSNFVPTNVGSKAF
From the text: as §3

adrenomedullin = molecular target: T6, adrenomedullin (Homo sapiens, UniProt P35318); experiment: Solution competition by Biacore: adrenomedullin; assay type: binding; details: pre-incubation with an excess of peptide
T6 sequence (P35318 95-146 limits assumed): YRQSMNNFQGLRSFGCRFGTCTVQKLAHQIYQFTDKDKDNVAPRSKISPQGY
From the text: as §4, §5

rats = experiment: Long term observation for adverse CNS events (dependence indicators); assay type: in vivo, rat; details: in comparison to control animals
amylin = molecular target: T7, amylin (Homo sapiens, UniProt P10997); experiment: Solution competition by Biacore: amylin; assay type: binding; details: pre-incubation with an excess of peptide
T7 sequence (P10997 34-70 limits assumed): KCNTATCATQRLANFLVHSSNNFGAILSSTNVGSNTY
From the text: as §4, §5

[6] = test system: OA hind limb of the rat (MMT); experiment: Osteoarthritis pain model (transection of the medial meniscus, MMT), weight bearing; assay type: in vivo
Procedure: FIG. 1: Osteoarthritis pain model. […] Both antibodies were dissolved in a vehicle solution containing PBS+0.01% Tween 20. Celecoxib was used as positive control in the study. It was suspended in 0.5% methylcellulose and 0.025% Tween-20 and was administered by oral gavage (1 ml/kg) at 30 mg/kg, twice a day throughout the study period. Pain responses were assessed on day 2, 3, 7 and 10 following initiation of the pharmacology study (day 0) and were assessed in a fully blinded fashion. Data re the mean±SEM of 6 rats per group. *p<0.05 and p<0.01 vs baseline value (Dunnett's test in GraphPad Prism). In the figure, from left to right, bar 1=baseline, bars 2-5=null antibody, bars 6-9=1 mg/ml G2, bars 10-13=10 mg/ml G2, bars 14-17=Celecoxib 30 mg/ml.
Transection of the medial meniscus (MMT) in one hind knee of the rat results in the development of cartilage lesions and other changes in the joint similar to those that occur in OA. The resulting joint pain leads to the development of sustained changes in weight bearing (assessed using an incapacitance meter) in the rat hind limbs and mechanical (tactile) allodynia (assessed using von Frey filaments), in the hind paw, lasting several weeks. Studies were carried out accordingly to a blind protocol, where the investigator was not aware of the identity of the compound/control or the treatment of the animal.

CNS penetration = details: in vivo
[7] = Plasma exposure of antibody in the OA pain study; assay type: in vivo; details: rat
Procedure: This effect lasted 10 days post administration when the plasma exposure of antibody G2 achieved an average value of 65.1±3 ug/ml (6.3±0.3 ug/ml, for the lower dose at 10 days post IV).

- affinity of N-biotinylated 25-37 human α-CGRP fragment vs full-length N-biotinylated human α-CGRP [3]: bound with the same affinity
- koff (rat β-CGRP): 7.85e-05 s⁻¹
- kon (rat β-CGRP): 516000 M⁻¹ s⁻¹
- complex formation with calcitonin (calcitonin): did not form a complex
- koff (rat α-CGRP; 25 ° C.): 6.18e-05 s⁻¹
- kon (rat α-CGRP; 25 ° C.): 50800 M⁻¹ s⁻¹
- koff (rat α-CGRP; 37 ° C.): 0.000399 s⁻¹
- kon (rat α-CGRP; 37 ° C.): 155000 M⁻¹ s⁻¹
- koff (human α-CGRP [5]; 25 ° C.): 7.8e-06 s⁻¹
- kon (human α-CGRP [5]; 25 ° C.): 186000 M⁻¹ s⁻¹
- koff (human α-CGRP [5]; 37 ° C.): 3.63e-05 s⁻¹
- kon (human α-CGRP [5]; 37 ° C.): 587000 M⁻¹ s⁻¹
- koff (human β-CGRP): 6.98e-05 s⁻¹
- kon (human β-CGRP): 451000 M⁻¹ s⁻¹
- complex formation with adrenomedullin (adrenomedullin): did not form a complex
- complex formation with amylin (amylin): did not form a complex
Molecule: G1: humanized IgG2Δa monoclonal anti-CGRP antagonist antibody, vectors ATCC PTA-6867 and PTA-6866; variable regions SEQ ID Nos. 1 and 2 [Antibody G1]
- effect in further neurogenic flare and vasodilatation model tests ([1]; 7 days post IV dosing): marked effect
- start of inhibition of neurogenic flare in the skin ([1]; FIG. 7, intravenous administration): 90 min post-treatment
- start of significant decrease in blood flow response ([1]; 1 mg/kg IV): 120 minutes post dose
- start of significant decrease in blood flow response ([1]; 10 mg/kg IV): 90 minutes post dose
- development of neurogenic flare in vivo [1]: prevent the development of neurogenic flare in vivo
- predicted ED50 ([1]; saphenous nerve stimulation model): 6 µg/mL
- adverse gastro intestinal effects on behaviour, food intake, stool production or histopathology (rat; 1 week comparative study): no adverse gastro intestinal effects were observed
- alanine scan result, binding region (epitope) [2]: binds to the C-terminal region of human α-CGRP, particularly residues 25 to 37
- inhibition of binding of α-CGRP to the CGRP1 receptor (human α-CGRP [4]): inhibits the binding of α-CGRP to the CGRP1 receptor
- Biacore response after pre-incubation with human or rat CGRP (human or rat CGRP): fully blocked
- adverse CNS events such as sedation or stimulation/euphoric behaviour (rats): did not reveal adverse CNS events
- shift in weight bearing on the OA limb ([6]; repeat experiments, buffer as negative control): reversed the shift in weight bearing on the OA limb to normal value
- CNS penetration / crossing of blood brain barrier (CNS penetration): Neither antibody G1 nor antibody G2 demonstrate CNS penetration

B1: G2: anti-rat CGRP mouse monoclonal antibody (Wong H C et al. 1993); variable regions SEQ ID Nos. 19 and 20; RN4901 = murine tool in Table 1 legend (antibody, V domains shown)
VH: EVQLQQSGPELVKPGASVKMSCKASGYTFTSSVMHWVKQKPGQGLEWIGYINPYNDGTKYNEKFKGKATLTSDKSSSTAYMELSSLTSEDSAVYYCAKGGNDGYWGQGTTLTVSS
VL: EIVLTQSPTTMAASPGEKITITCSASSSISSIYLHWYQQKPGFSPKVLIYRASNLASGVPARFSGSGSGTSYSLTIGTMEAEDVATYYCQQGSTIPFTFGSGTKLEIK
modifications: Synthetic polypeptide, Antibody G2 heavy chain variable region; Synthetic polypeptide, Antibody G2 light chain variable region
- development of neurogenic flare in vivo [1]: prevent the development of neurogenic flare in vivo
- adverse gastro intestinal effects on behaviour, food intake, stool production or histopathology (rat; 1 month study): no adverse gastro intestinal effects were observed
- plasma exposure, average value ([7]; 10 mg/kg IV, 10 days post administration): 65.1 ± 3 µg/mL
- plasma exposure, average value ([7]; lower dose, 10 days post IV): 6.3 ± 0.3 µg/mL
- adverse CNS events such as sedation or stimulation/euphoric behaviour (rats): did not reveal adverse CNS events
- duration of effect on weight bearing ([6]; 10 mg/kg, IV): 10 days post administration
- weight bearing deficit of the OA hind limb ([6]; 10 mg/kg, IV): reversed weight bearing deficit of the OA hind limb
- weight bearing deficit of the OA hind limb ([6]; lower dose (1 mg/kg, IV)): No effect
- CNS penetration / crossing of blood brain barrier (CNS penetration): Neither antibody G1 nor antibody G2 demonstrate CNS penetration
